Source: patent US8095350

Target: T1, Human APOBEC-2 (APO2) containing residues 41-224 (human), Q9Y235
T1 chain: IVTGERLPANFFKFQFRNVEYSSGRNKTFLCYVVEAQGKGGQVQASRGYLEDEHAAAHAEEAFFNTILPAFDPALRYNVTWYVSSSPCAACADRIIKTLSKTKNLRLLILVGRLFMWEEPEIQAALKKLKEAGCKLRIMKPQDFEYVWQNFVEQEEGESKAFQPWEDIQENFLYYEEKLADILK
Assay: X-ray crystal structure, tetramer interface
Settings: remark: other sources report otherwise

total buried area within the tetramer interface: 1740 Å^2
B1: Human APOBEC-2 (APO2) containing residues 41-224, Q9Y235 41-224 (enzyme, UniProt Q9Y235 41-224, looked up)
chain: T1 chain
